# Results from the supplement of paper PMC9112550, “Optimization of the antimicrobial peptide Bac7 by deep mutational scanning” (BMC Biology, 2022).
# Tested on: Escherichia coli TOP10
# Test: shrunken log2 fold change of peptide-encoding DNA abundance (4.5 h post-induction vs induction); higher = less antimicrobial activity (less host growth inhibition)
# Conditions: time post-induction: 4.5 h; library: site-saturation at positions 5, 18, 19, 20
# 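Note: peptides expressed intracellularly from a pBAD plasmid library in pooled LB shake-flask culture, induced with 0.3% L-arabinose, DNA abundance read by NGS, three biological replicates, DESeq2 with apeglm shrinkage.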
row,Sequence,shrunken log2 fold change
1,RRIRFRPPRLPRPRPRPTIYPRP,-0.689
2,RRIRMRPPRLPRPRPRPRTGPRP,0.561
3,RRIRRRPPRLPRPRPRPFIIPRP,-0.323
4,RRIRERPPRLPRPRPRPTECPRP,-0.00173
5,RRIRGRPPRLPRPRPRPPTNPRP,0.866
6,RRIRPRPPRLPRPRPRPDRYPRP,-0.0207
7,RRIRDRPPRLPRPRPRPEHTPRP,0.225
8,RRIRTRPPRLPRPRPRPFPGPRP,-0.21
9,RRIRLRPPRLPRPRPRPQWCPRP,-0.282
10,RRIRPRPPRLPRPRPRPESEPRP,-0.0127
11,RRIRKRPPRLPRPRPRPFTNPRP,-0.0844
12,RRIRPRPPRLPRPRPRPIPWPRP,0.00327
13,RRIRRRPPRLPRPRPRPDWGPRP,0.157
14,RRIRDRPPRLPRPRPRPESFPRP,-0.0579
15,RRIRNRPPRLPRPRPRPWNCPRP,-0.0415
16,RRIRNRPPRLPRPRPRPPMHPRP,0.0449
17,RRIRNRPPRLPRPRPRPQWAPRP,-0.188
18,RRIRRRPPRLPRPRPRPQLYPRP,0.101
19,RRIRCRPPRLPRPRPRPIKTPRP,-0.0653
20,RRIRWRPPRLPRPRPRPHMGPRP,0.0771
21,RRIRHRPPRLPRPRPRPWWPPRP,-0.0995
22,RRIRLRPPRLPRPRPRPMMIPRP,-0.203

row,Sequence,shrunken log2 fold change
1,RRIRNRPPRLPRPRPRPFLNPRP,-0.392
2,RRIRIRPPRLPRPRPRPNPCPRP,-0.159
3,RRIRKRPPRLPRPRPRPQPFPRP,0.18
4,RRIRNRPPRLPRPRPRPCTCPRP,-0.0075
5,RRIRWRPPRLPRPRPRPMSQPRP,0.0791
6,RRIRHRPPRLPRPRPRPQGVPRP,-0.00445
7,RRIRMRPPRLPRPRPRPYTYPRP,-0.398
8,RRIRGRPPRLPRPRPRPCWNPRP,0.183
9,RRIRERPPRLPRPRPRPHMFPRP,-0.749
10,RRIRARPPRLPRPRPRPTDVPRP,0.141
11,RRIRQRPPRLPRPRPRPERMPRP,0.0275
12,RRIRWRPPRLPRPRPRPSCEPRP,0.19
13,RRIRSRPPRLPRPRPRPLSKPRP,-0.0737
14,RRIRDRPPRLPRPRPRPMPAPRP,0.354
15,RRIRPRPPRLPRPRPRPAHVPRP,0.0491
16,RRIRSRPPRLPRPRPRPQRIPRP,-0.322
17,RRIRMRPPRLPRPRPRPWGYPRP,0.101
18,RRIRKRPPRLPRPRPRPNPSPRP,0.108
19,RRIRQRPPRLPRPRPRPNYQPRP,-0.491
20,RRIRERPPRLPRPRPRPWHEPRP,-0.0932
21,RRIRERPPRLPRPRPRPNGTPRP,-0.0811
22,RRIRVRPPRLPRPRPRPYWPPRP,-0.182

row,Sequence,shrunken log2 fold change
1,RRIRCRPPRLPRPRPRPVQRPRP,0.123
2,RRIRERPPRLPRPRPRPFACPRP,-0.433
3,RRIRWRPPRLPRPRPRPVSTPRP,0.138
4,RRIRSRPPRLPRPRPRPQSKPRP,-0.0711
5,RRIRSRPPRLPRPRPRPYVCPRP,-0.414
6,RRIRYRPPRLPRPRPRPCSPPRP,-0.0146
7,RRIRIRPPRLPRPRPRPIADPRP,-0.0882
8,RRIRNRPPRLPRPRPRPKQPPRP,0.00591
9,RRIRARPPRLPRPRPRPTNNPRP,0.00693
10,RRIRKRPPRLPRPRPRPKHMPRP,0.03
11,RRIRQRPPRLPRPRPRPCADPRP,-0.116
12,RRIRIRPPRLPRPRPRPRMTPRP,0.043
13,RRIRYRPPRLPRPRPRPMVEPRP,-0.201
14,RRIRSRPPRLPRPRPRPPLWPRP,0.704
15,RRIRSRPPRLPRPRPRPGIFPRP,0.201
16,RRIRLRPPRLPRPRPRPVLMPRP,-0.04
17,RRIRNRPPRLPRPRPRPEELPRP,0.678
18,RRIRHRPPRLPRPRPRPGMTPRP,-0.039
19,RRIRERPPRLPRPRPRPCPFPRP,-1.04
20,RRIRPRPPRLPRPRPRPFVGPRP,-0.297
21,RRIRPRPPRLPRPRPRPVVQPRP,0.28
22,RRIRWRPPRLPRPRPRPLTKPRP,0.23

row,Sequence,shrunken log2 fold change
1,RRIRARPPRLPRPRPRPVHYPRP,-0.198
2,RRIRHRPPRLPRPRPRPQWLPRP,0.134
3,RRIRSRPPRLPRPRPRPWSGPRP,-0.0339
4,RRIRWRPPRLPRPRPRPLWMPRP,0.151
5,RRIRDRPPRLPRPRPRPEPEPRP,0.579
6,RRIRARPPRLPRPRPRPPPVPRP,1.04
7,RRIRIRPPRLPRPRPRPPHPPRP,0.154
8,RRIRNRPPRLPRPRPRPGKQPRP,-0.406
9,RRIRPRPPRLPRPRPRPECLPRP,0.0299
10,RRIRCRPPRLPRPRPRPNHAPRP,-0.00846
11,RRIRFRPPRLPRPRPRPDYDPRP,-0.0802
12,RRIRIRPPRLPRPRPRPHHWPRP,-0.18
13,RRIRIRPPRLPRPRPRPCQYPRP,-1.06
14,RRIRTRPPRLPRPRPRPCYQPRP,-0.335
15,RRIRTRPPRLPRPRPRPMATPRP,0.0309
16,RRIRNRPPRLPRPRPRPCVSPRP,0.0348
17,RRIRLRPPRLPRPRPRPFPWPRP,-0.0836
18,RRIRNRPPRLPRPRPRPWRGPRP,0.226
19,RRIRERPPRLPRPRPRPKCKPRP,-0.173
20,RRIRWRPPRLPRPRPRPKQAPRP,0.413
21,RRIRMRPPRLPRPRPRPTILPRP,-0.0108
22,RRIRHRPPRLPRPRPRPVETPRP,0.0401

row,Sequence,shrunken log2 fold change
1,RRIRERPPRLPRPRPRPCGEPRP,-0.116
2,RRIRRRPPRLPRPRPRPNRMPRP,-0.303
3,RRIRCRPPRLPRPRPRPYQVPRP,-0.829
4,RRIRNRPPRLPRPRPRPYYGPRP,-0.105
5,RRIRRRPPRLPRPRPRPYMSPRP,-0.054
6,RRIRDRPPRLPRPRPRPHCTPRP,-0.0502
7,RRIRHRPPRLPRPRPRPMFFPRP,-0.347
8,RRIRTRPPRLPRPRPRPKQMPRP,0.0252
9,RRIRSRPPRLPRPRPRPRLCPRP,0.28
10,RRIRGRPPRLPRPRPRPNTEPRP,0.299
11,RRIRDRPPRLPRPRPRPTETPRP,-0.000924
12,RRIRMRPPRLPRPRPRPSYTPRP,-0.38
13,RRIRMRPPRLPRPRPRPTKYPRP,-0.152
14,RRIRSRPPRLPRPRPRPWWGPRP,0.0289
15,RRIRDRPPRLPRPRPRPMGMPRP,-0.069
16,RRIRIRPPRLPRPRPRPGQGPRP,-0.257
17,RRIRMRPPRLPRPRPRPSHRPRP,0.254
18,RRIRNRPPRLPRPRPRPVPAPRP,0.459
19,RRIRVRPPRLPRPRPRPEKNPRP,0.0805
20,RRIRGRPPRLPRPRPRPNFNPRP,0.0556
21,RRIRVRPPRLPRPRPRPPSCPRP,0.187
